The DeepSol protein solubility set

Experiment: soluble on expression in E. coli; label from the status in PepcDB or PDB records

Sequence | soluble on expression in E. coli
MDELLKAIKTKIAEMKKIELTGFTNTETATAYFQEKEAILEGIVKTLETITVQETSEVEALKSTVKSLREEIKGQAKSPRELSRRELLYNLGKGIAAAWSGNHKVLADLAFSPNLKSDNWTNPKDVSWGERGWTVSKAALGEPMGNMSPNNEQFLINPIYETEIMSDVAKKSVMMSLVRHRPMLGPSIFLPTRDRGGVQLNWLTAYGQKIEGSKPKGAERVELKAYTLAGFIPWFDEFEEDVFVDLGAMFIDEFIETYGQEFDRQCLLADDDPFTGAMACADVTEVTIKGDTIDDLTWKDFRDAVYKVPAEERKDCSWFLNETVLNHIANIEDTTGRPIWRRPTEAMPGRLDLYPYHEVSILPQIADIGENQAFAVFMNPKRIQHGNRRGIELKKFDGTTESLEYGELFLRFRKRDGFLVPDRKTTWSSLGHN | not soluble
DNKELQKLTEDISETYFKKPFRHQALFNDRLKTTGGRYLLTSHNIELNRKYLIEHGREELIGIIKHELCHYHLHLEGKGYKHRDRDFRMLLQQVNAPRFCTPLKKKAENKKTYMYICTTCGQQYIKKRAMNPDRYRCGKCRGKIKRI | not soluble
MTNLMSALSKLSQALDSKNIGEVLLALQNFDEEFSAEKCEDVFVRCLQEIISWDLTVSLEISETVVRQMMNRLENQAVLEEMCNYIIKQQSSVTVEIAVEIMIEHGWILRTDDCREVWKQIESAKNTEKIEILARRMTANCRILRLSGAPKRFLEKLLKDVIISLNANKVNIPMKFLNELAIVSPFHPILVIEDFKKDSEYFYIPHVVSEETRFHLEVKEFTNFFQIESTYHKEQACQMLQVFNQIYKRMELIPQLEAPEIDKIVEFWLAALRIFNGYGIGMNDITESAKLLEKTASRYSLKSRPLFLKHFLKKISEKKDTNIGLEPQVVATIITTYQRNAFGLRSPEFYEELGEFWALCLKIKYDDVYFATVYFSAVFALAQAQAVFKIKKELCREVYHKILQPMHEQLVDFVKLKQVESNKATSEEEVMRLEHQNIGASYFSILTCTYKNAEDRILEFMKEN | not soluble
MANQIYLFSLICLSVLLCQSYTVSSFQKSLDLAKPCKRFVLHLHDIAYDGDNAANATSAAIVNPLGLGDFSFGKFVIMDDPVTMDQNYLSKPVARVQGFFCYHGKATYDAWIAWTVVFNSTQHKGAFTIMGENPFMEPTRDLPIVGGTGDFIMTRGIATLTTDHIDGSKYFRVKLDIKLYECYH | soluble
MDKTKLYPEAPLTSSQWGELDELVIETARRQLVGRRFIDLYGPLGEGVQSVANDIYMNPEQGDMSFHGKELSLSEPARRVHLTIPLLYKDFILYWRDIEQAKQLGSPIDFSAAANAAQQCALLEDDLIFNGSTEFDVPGIMNVKGKIAHIRSDWMKSGNAFTDVVEARNKLLQLGHTGPYALVLSPELYALIHRVHEGTHVLEIEHIRELMTAGIYQTPVIKGKRGVVIDTGRQNIDLAVAADMQTAFLDTENMNYLFRVYESVVPRIKRPSAICTLEDPNESA | not soluble
MMNTDNRLLTRESSEHIREFFSTVERLSVSMERLFAGRSPAMAGENFYTDRELAEKLKVSRRSLQQYRDSGLLAFTRLGGKILYRSSDIEKLLDGCYREARTRPEEL | not soluble
MKKKKLFLGTIISCVVLALSACGSSDNVVTSKVGNITEKELSKELRQKYGESTLYQMVLSKALLDKYKVSDEEAKKQVEEAKDKMGDNFKSTLEQVGLKNEDELKEKMKPEIAFEKAIKATVTEKDVKDNYKPEMKVSHILVKDEKTAKEVKEKVNNGEDFAALAKQYSEDTGSKEQGGEITGFAPGQTVKEFEEAAYKLDAGQVSEPVKTTYGYHIIKVTDKKELKPFDEVKDSIRKDIEQQRLQDTTGKWKQQVVNELLKDADIKVNDKEFKNTFEFLEKK | not soluble
MFFNKSLQQENQRLKQELYSLQQIQQSLDEEMLRLTLDAKGNVTSANQKFLQQLSLSDKDILAKHISDLVPSNVRNTDHFYRMKQSVQAKAFWNGAFQITKGDGEEAWLRVVIQPVRNASDQVESFFVFASELTRTITTSREYEDMLNALSRSMAVIEFTLDGTVLKANDNFLSTMGYKHEQIVGKHHRIFCLPEEANSSAYHDFWKRLASGQFVTDRFKRVDQHGSVVWLEASYNPIHNDRGELYKVVKFATNITQQVLQ | not soluble
MVWFFFSCDEYNEEILKTNSGYWKETVSNTPIIGKWITSNGVKIGEKQVLVFQSYENINGSKSDWVMHVYQPTFLPPNQVIFRIYDV | soluble
MKKDTDCTEILVGKTASMDGSTIVARNEDGYGPINPIKFIVHEAHDQTNASYTSVTTGVTVPLPDHAYRYTATPQADQSDGQYEEAGINELNVGMSATETTATNARVLGYDPLVHDGVDEEAMVTLVLPYIKSAKEGVQRLGALIEKYGTGESNSIAFNDHDDIWLFETAGGHHWGAVRMPEDTYAIVPNQTVVQEMDLNDTDNFLGASDLVDFVEKYHLNPTPGHFNFREIFGTQSEADAYYNTPRTWYGQKLFNPEIEQNPTDQNMPLFRQPSKKLAIEDVQFFLSSHYNGTPYDPFGTFASGNAREQTRYRSIAMDRNQCSSILQIRNDVPAKQAAIQWIALGFFAYAPYVPFFTNINDTPIDYRNTTSTVSVDNVYWLSKTLSVLIEPHWHEFAETVNAYRDECQSYARGRVAATDAAIAGNPTDFLTKANSETAAEISNRTHALFDTLVKQGLLLSKTTWEKGQNLLEHHHHHH | not soluble
MGSDKIHHHHHHDAGAPAFLSAGRVADGAYNLYGLDRRGRPLFHLPIPDRGHAAAAHPQRAEAVAFARRPGRFALVLNCVSGAEIARLSAPEGRHFYGHGAFDAEGRVLFTTENDYEAGQGRIGLWDAGAGYRRIGEVASGGVGPHDIRLMPDGQTLVVANGGVETHPDTGRVKLNLPVMQPNLSYLSLAGEVLEVVRMPPEHRMNSIRHLDLRADGLVAFAMQWQGEGTELRPVLGLHRRGTAPVAVTGNEAEMRAMNGYGGSVIFYDQGRRVAVSSPRGGIVQLSDVAAGRIIGGVAITDVCGLGVTGGGLVASSGSGVFTRVGGKEASRSEIAWDNHLVAVNRA | not soluble
MSLEGFIEGSSLTVLNRNFYFNRDNRDSTAPTYNSGKGNTNGYSEAWAHAIISKFNSGFTQGTVGFGVDAFAMIGLKLDTGDGRNGGRSSFDVLPVDNKGEARDEYTKVGGAAKVRLFDTIVKVGDVFPSTPVVASGDSRLLPESFRGVTVENTSIQGLTLQGGRLHAMSQPVSSNLNDNFVTFYGGPVNSPWIGYGGGDYSINDNWTVSVYASQLKDVWNQYYAGTSVVYPLSDDLALIGGFNYYKAVDEGKKRLGEFDNNIWSAKVGVRYGAHTLALSHQRNNGDDDFDYLRQSDSIFVDNSIQYSDFNSPKERSWMLRYDLNFTSYGIPGLTFMTRYARGSGADYSNANQFYMRTDDNGNPLDNQKRWERDVEVKYVVQTGPAKDLSFRLRQATTRATAFESDLDETRVIIEYPLSILEGHHHHHH | soluble
MGSDKIHHHHHHMGSLADTLRDRRQKLARLIDFPAILWSGGSNARNFPANRFPFRASSHFLYFAGLPLPNAAIHLEAGKLTLFIDDPAPGSALWHGETPKREEIAETIGADAAKPLSELTPFLAGAATIAVQDATTWTQQSQLLNRWVLPQSQPEGIDLELTKAIVTLRLIHDAGALAELRKAATVSVAAHKAGMVATANAKIEAEVRAAMESVFIAHNMTTAYNSIVTVHGEVLHNEQYHHPLQPGDLLLADVGGETELGWAADITRTWPVSGKFSPTQRDIYDVVLAAHDTCIANILPGVEYAEIHLVGARVIAEGLVNLGILRGNPEDLVEKDAHALFFPHGIGHLLGLDVHDMEDLGDLAGYEEGKKRSDRFGLGYLRLNRPLRTGMLVTIEPGFYQVPAILNDEKIRSRYQYTVNWERLSQFADVRGIRIEDDVLVTDTGSEVLTAALPNDADTVEHLVNKI | not soluble
MTVRIAINGFGRIGRNVVRALYESGRRAEITVVAINELADAAGMAHLLKYDTSHGRFAWEVRHEREQLFVGDDVIRILHERTLADLPWRELGVDVVLDCTGVYGNREHGEAHIAAGAKKVLFSHPGSNDLDATVVFGVNQNQLRAEHRIVSNASCTTNCIIPVIKLLDDAYGIESGTVTTIHSAMNDQQVIDAYHSDLRRTRAASQSIIPVDTKLAAGITRIFPQFNDRFEAIAVRVPTINVTAIDLSVTVKKPVKASEVNQLLQKAAQGAFHGIVDYTESPLVSIDFNHDPHSAIVDGTQTRVSGAHLIKTLVWCDNEWGFANRMLDTTLAMAAVGFRLDASASTKL | not soluble
MSEKEIWEKVLEIAQEKLSAVSYSTFLKDTELYTIKDGEAIVLSSIPFNANWLNQQYAEIIQAILFDVVGYEVKPHFITTEELANYSNNETATPKETTKPSTETTEDNHVLGREQFNAHNTFDTFVIGPGNRFPHAASLAVAEAPAKAYNPLFIYGGVGLGKTHLMHAIGHHVLDNNPDAKVIYTSSEKFTNEFIKSIRDNEGEAFRERYRNIDVLLIDDIQFIQNKVQTQEEFFYTFNELHQNNKQIVISSDRPPKEIAQLEDRLRSRFEWGLIVDITPPDYETRMAILQKKIEEEKLDIPPEALNYIANQIQSNIRELEGALTRLLAYSQLLGKPITTELTAEALKDIIQAPKSKKITIQDIQKIVGQYYNVRIEDFSAKKRTKSIAYPRQIAMYLSRELTDFSLPKIGEEFGGRDHTTVIHAHEKISKDLKEDPIFKQEVENLEKEIRNVLEHHHHHH | soluble
GSSHHHHHHDYDIPTTENLYFQGSAHRPRWTLSQVTELFEKPLLDLLFEAQQVHRQHFDPRQVQVSTLLSIKTGACPEDCKYCPQSSRYKTGLEAERLMEVEQVLESARKAKAAGSTRFCMGAAWKNPHERDMPYLEQMVQGVKAMGLEACMTLGTLSESQAQRLANAGLDYYNHNLDTSPEFYGNIITTRTYQERLDTLEKVRDAGIKVCSGGIVGLGETVKDRAGLLLQLANLPTPPESVPINMLVKVKGTPLADNDDVDAFDFIRTIAVARIMMPTSYVRLSAGREQMNEQTQAMCFMAGANSIFYGCKLLTTPNPEEDKDLQLFRKLGLNPQQTAVLAGDNEQQQRLEQALMTPDTDEYYNAAAL | soluble
MLKYRDEKDISACGIFGIMDRKGRRFNGKLVIEAMSQMKVRGNGLGAGFAVYGLYKKFKEYYAFHVMIYDKDGREKLEKFLSTNFDIVYVDEIPVNDKAKVIDPPKFMRYFVAPRKKGTEKVLNDDDFVVKKVMYINRAIPGVYVISSGKNMGVFKGVGFPEDIADYFMIEEYKGYIWTAHTRFPTNTPGWWGGAHPFSILDWSVVHNGEISSYGTNKRYLEMYGYYSTLQTDTEVITYIFDLLVRRQGLPIEVVSKILAPPMWEEIDRMPEKEKKFYKALRMVYSPILLNGPWAIIVARHGEMIGLTDRIRLRPLTVAEKKSFLIISSEEAPIRYLFRDVDRIYTPYGGELVVGKLEEDIKKFVGESQ | not soluble
MAHHHHHHMDKGCSDCFFACHRYENWIDNQKEQFLKQRGEYENVINGTSSSSSSVGGKRQTRRTRSISSDDNGYESKFYKKLKERGYSEVKNFFEKLNKEKECQNFDDKGGEFDFNEHVDKDKEYKGTFYHSKYCEVCPGCGVKRDGNDWKEKSGGRCTRKKRYKILDDNNFNGIDVLSFGDKRNEIKQKIDTFCGGSNEEKEKLKEQWKCYEAQYVKEDKKEDEEDEDEVEEEDDLKDAGGLCTLQNKKK | not soluble
MGSDKIHHHHHHMSNRQEQPHFNDWFQARGITEVECLVTDLTGILKGKIMPAGKYLGGGRPRLPDSIFIQTVTGGYPDDDDIHFWNPAERDMELVPDPNAVFLVPWADDPTAQIIHDCHYLTGEPVELAPRHVLKRVLACYQARGWKPVVAPEVEFFLVKTNTDSDYPLEPPIGRNGRQESSRQSFSIDAVNEFDPLFEEMYDYCDAMSLDLDTLIHEEGAGQMEVNFQHGDPLHLADQVVMFKRALRETALRHGMYATFMAKPMANEPGSSMHLHQSLLDAQSGDNLFASDNGQSSRLFQHFIGGLQRYLPASMPLLAPNVNSYRRLMRTETSGSAPINVEWGTDNRTVGLRVPVSTPEATRVENRLAGADANPYLVMAASLACGYLGMLGQLEPRPPMVGSAWSGGHKLPDDIRPALDMLSECQPLAEILGERFTNSYLAVKRAEHREYFQVISSWEREHLLLRV | not soluble
